Values of other authors in patent publication US20240247069A1, “FGFR3 BINDING MOLECULES AND METHODS OF USE THEREOF” (Regeneron Pharmaceuticals, Inc., priority 2023, published 2024).
Read-outs that look alike come from different tables or passages of the source.

Tested on: FGFR3
[1] = Table T-3, exemplary FGFR3 D3 binding sequences from cited PCT publications
[2] = literature antibodies, sequences from cited PCT publications

Molecule | Activity [1] | Activity [2]
MS-Pro-29: anti-FGFR3 Ig-like domain 3 antibody of WO 2002/102972 A2; VH SEQ ID NO:40, VL SEQ ID NO:41 (antibody, V domains shown) VH: QVQLVQSGAEVKKPGASVKVSCKASGYTFTSYYMHWVRQAPGQGLEWMGWINPNSGGTNYAQKFQGRVTMTRDTSISTAYMELSSLRSEDTAVYYCARTWQYSYFYYLDGGYYFDIWGQGTLVTVSS VL: DIVLTQSPATLSLSPGERATLSCRASQSVSSSYLAWYQQKPGQAPRLLIYGASSRATGVPARFSGSGSGTDFTLTISSLEPEDFATYYCQQTNNAPVTFGQGTKVEIKRT | Antagonistic | Antagonistic
MS-Pro-2: anti-FGFR3 Ig-like domain 2 antibody of WO 2002/102972 A2; VH SEQ ID NO:24, VL SEQ ID NO:25 (antibody, V domains shown) VH: QVQLVQSGAEVKKPGASVKVSCKASGYTFTSYYMHWVRQAPGQGLEWMGWINPNSGGTNYAQKFQGRVTMTRDTSISTAYMELSSLRSEDTAVYYCARDFLGYEFDYWGQGTLVTVSS VL: DIELTQPPSVSVAPGQTARISCSGDALGDKYASWYQQKPGQAPVLVIYDDSDRPSGIPERFSGSNSGNTATLTISGTQAEDEADYYCQSYDYSADYVFGGGTKLTVLGQ |  | Antagonistic
MS-Pro-28: anti-FGFR3 Ig-like domain 3 antibody of WO 2002/102972 A2; VH SEQ ID NO:38, VL SEQ ID NO:39 (antibody, V domains shown) VH: QVQLVQSGAEVKKPGSSVKVSCKASGGTFSSYAISWVRQAPGQGLEWMGGIIPIFGTANYAQKFQGRVTITADESSTAYMELSSLRSEDTAVYYCARGGGWVSHGYYYLFDLWGQGTLVTVSS VL: DIQMTQSPSSLSASVGDRVTITCRASQGISSYLAWYQQKPGKAPKLLIYAASSLQSGVPSRFSGSGSGTDFTLTISSLQPEDFAVYYCFQYGSIPPTFGQGTKVEIKRT | Antagonistic | Antagonistic
